Experiment: label from the status in PepcDB records

| Sequence | protein production |
| --- | --- |
| MHLGSTFYDETELRSLPFRHLGANVKIKRTAGLFFVENISIMDDARIDDFTIIVASREHVEIGCNVHIASQCYISGSDGFVMEDFSGLAPGVKIYTSSDDYTGEKMTNPTLPRHLIGGPAGKVVLRKHVIIGSNSVVLPKVTIEEGSSVGSLSLVNKSLPAWGVYAGIPVRRLRDRSQNILILEKELGASRA | failed |
| MHLGVIGATGTIGSRVVTEALARGHHVTAFTRDSTQIDEDRGNVVWKSLDVLDAASVAAGISGLDVLISGFQPGNAAKDIADTVARSIADPTVYATAARSLLKALESHPRTRLIVIGGAGSLEIEPGVVRADSDELLHSSLDALGLPRQYAAAVRGHRDALNVLRTSNRLWTYFSPAEDIAPGERTGRFRTGGDQPVLDAEGRSRISVEDAAVALVDEAELPRFVQRRFTIGY | failed |
| MHLLVVEDDDIVRMLMVEVLDDLGYKVIEAEDATAALRVLEDPSQALALMMTDVGLPDMRGEELAGKARELRPLLPVLFASGYADSFNVPEGMHLIGKPFSIDQLRDTVVGILGTP | failed |
| MHLQPQKKKKHLQTFLHPQQTQVLQTICLQPRQKGRVDSQLIVLQAQQQQALQVPVEAVNCSENMRRLSISEDFSKALQILYNLGKISDNRESFDNTXFYEENLGKALRVNDNTVKPSAPVSTQESLRTVELTEGFRHQCIFDFCRRRDILRYFFDPIKANLSKGHGSNFDKSDSVACTLHPYTPYPHLQQLWVYYMLTYTQYLPLRLVGGQNRCEGRLEVRHEGEWGTVCDDRWNIKNARVVCRLLGCGPALGAPGRSHFGPGTGPILMNEVRCSGREDSLESCAHAGWTRHNCHHREDASVICAGPADSLVPKDNAQLSCLPHLFQAVIDRGYLRRLGYSSWDIHLNDKMCRPQVTGRYLIFNIPYGHCGTVMQKHQGSLSYSNSIRGRTQGHPGRVIVRHKVPQVKFTCKVDGQSAVEIVHGSDTKDEASYDVSISFLQSPVSQNTGGRAPLASQREEVFLQATLHSHNPNLRLVVDTCVASPDASDFTTVKYDLIQEGCIKDNSYSNLHAPEKNVAQFKFNAFSFLKSYDVVYVQCKVAVCRLGDHSSRCSQGCLNRGRRGAGSAEVREEQTEYFQTVGPLKIHREANQSKVLV | failed |
| MHLRLSTLAGFKTGPRFQSSMSEAESESRAGREEVWIEKYRPQTLDDVMGHENIVGRLKSYVSRNDLSHMLFSGPAGTGKTTCATAIARELYGDDWREHFLELNASDERGIDVVRDRIKNFARTSFGGVEYRIIFLDEADALTSDAQSALRRTMEQFSNNVRFILSCNYSSQIIDPIQSRCAVFRFSPLADDAVAEEIRTIAAEEDIELTEDGLDALVYAADGDMRKAINGLQAASVSGDTVDESAVYAITSTARPEEIRTMVQSALDGDFTASRATLDRLLTEEGIAGGDIIDQLHRSIWEFDIDDDAAVRVLERIGETDYRITRGANERVQLEAMLASLAQGE | failed |
| MHLSRCRKCGRVMKGERIDPYRVKLTCSCGFSDFRTMTEKVKTVNPFFQKGGFSPLLESERGKMVLTMQRANREHLEIISLEEISMLVSSDFDLPEVLQHVTAKVATQLKVSVCNIYLREGDEVVLAATHGFDPAFIGKIRIKIGDGITGSVARDGQYISLSRASQDPRYRYFPELQEEKYNSMLSFPIGDKKEVYGVINLNTTSIRSFHEDEIYFVSIIANLILTAIKLRQQVASSRKAAEASA | failed |
| MHMLFYKSYVREFIGEFLGTFVLMFLGEGATANFHTTGLSGDWYKLCLGWGLAVFFGILVSAKLSGAHLNLAVSIGLSSINKFDLKKIPVYFFAQLLGAFVGTSTVYGLYHGFISNSKIPQFAWETSRNPSISLTGAFFNELILTGILLLVILVVVDENICGKFHILKLSSVVGLIILCIGITFGGNTGFALNPSRDLGSRFLSLIAYGKDTFTKDNFYFWVPLVAPCVGSVVFCQFYDKVICPLVDLANNEKDGVDL | not failed |
| MHNDQEISDANRDWWDSDAQRYHNDHAAYLNGFHWCPEMLPEREAHLLGDISGLNVLEIGCGSAPCSRWLFDNYDAFVTGFDLSMGMLRHSPTDVPLTQADAVNLPYKDSSFDIAFSAFGAFPFIENLGPVLKDIARCLKPHGKLVFSTNHPMRWIFPDDPTEIGLCAELSYFDRSYTERDKNGKITYAEFHRTMGDWIELLNASGFIIDRLIEPEWPTNLTETWGQWSPLRGRIFPGTAIFVTHCRLEHHHHHH | failed |
| MHNKKWDLRIICAHAFTILIWGTAFPAIRMGLESYTPEHLTLLRLLIASFILLLFSFIYKLRLPDLKDIPAIFIFGALGFTIYHIALNYGEKTVNAGSASLIISVTPIVTAILASVFLNEKMKLNGWLGGVISFAGIALISFSQGDAIQLNSGGLFILLAAISESLFFVFQTSYLKKYGFLPFTIYTILSSTVCMLIFLPGVYQEILAAPLEVNLSVIYLGVFPTVLPYIALAYIISRAGASEATSSLYLTPITACFIAWIWLGEVPTLVSIIGGGITILGIVIAHIPVLRKEKHRNLANNQSV | failed |
| MHNLANLYRTGWPGGVEKDTQKALDLYQKMIDLDVPQGFYDMGAMIGNRAGVKNPATDGLTFLDKAASLGNPPALTELGKFYIYVAKKKDLGLAYTHCAASQGYAPASYELGAYYKIVEHNFPKALVYYQVSVSQGGKSAAFFLSRVFGSETPPASAMWYAPDEKLREAYYSIYKKLEADPLEHHHHHH | failed |
| MHPNIATLLSANLGESRTRHLLSLVSVPDGLPSDAEGRATRAEIAQALNMVLFAGILDRVPTGRAYTDDVAATGGKVVFDHGALRTVKWRDNGALPEGEAAFTRILRPLGYRLNGNYPLDRISMTGRSYAHADAPEGIAQFFVSEFHPERFSDAFREAVGRVTGNSADPLTPRAQTLLWQLDRDGVLTVADGAELIGLLVPCFERQHGVPRLADYETLLRESAEMAWIATEGNAFNHATDRVDDVFGLSEQQKALGRPMKDKVEVSGSGRVKQTAFRADTVRRQFIGAQGETVERDVPGSFYEFITRDRFADAPAASPRVDLGFDAGNAQGIFKMTAAV | not failed |
| MHPTIARMQEVVAKGDESLIHALLAEDVRFMPPTYYKTWTGRDPVAAVLGHVGQVFSEFRYRRIMGEGKDWALEFQCKVGELDAVGVDLITLNEGGLIQDFEVVMRPYKTVGALRDAMNARVMTDARFLKYREALS | not failed |
| MHQQGIRMEGMSDLNALNLEPGEVVGGYTLISRLGSGAMGSVWRVRDDGGTTYAMKILRDSLADESVAGSGSASAALHDPDLKPDVTPRERLRREAMALKKVNHPGVCGIVDMELDDTLAFIVTELIEGKNLKDDVAANGRYVGDDLERLARKLIDATKAVHAAGIVHRDIKPTNVMVSAAGPVLVDFGIAMGEGESHVTRTGLVMGTPGFIAPEIIDGAESDEATDWWSVASVLAFAATGAPVFGTKPMMAVLEREASGNANLSGLPAGTLAAFRSALDPDRTKRCTPDQLLNAIALDALNPAVWQGAQAGPFAAGAIAGGANTIAPAAGTAGETEAVPPFGAAGHVDRNNPRTIWRATDEAAQALTDEATTTLPDSAAPAISDEATVQLAGATVPLTEATTPLTSEATTPLTPVTGEPLLAPTTPLAERTAVLPSPQPTAFPPTPPVQLVGGMAQNGWNPAAADVQATVVDPNIRPALQRVIDQTAQFAPTEALVQQPLAPNPADVKRGEYLQRGVFPLLLLALPLAVLAASMPLIALLAAAAMLWLLLTLAYNTEPQLEREGRRGGERKSSDTWIRAATLPWHIVKALLLSLPRMVLLIVIAIAGTAAATMALALPTQTVYWYFTPERGVPIPLLNDVPLSASGLALGGFMAIGWLVTVFGPQAMMARLGAGVLRGLNPRQAQSPMPLAYDGSPAVPSPAAMAPASATRGKRSTMLFTIWIIVTLALCTLPLTGMAIDWTPLV | failed |
| MHRFFATRTSRIISVVLSLTFLAGCSLSEIDRIERQTKDSGEIARRISDTNRAKAQPAVRWMDKPWVSLKPLAPVVANPEEKILPPCQITINRPDGMNLPELGQRITGLCGPRVTITPDAFLVLSPANVRSGTSQQMPGSLPAPDGHGRVSLPYLGAQSPSASVMKQSDKHISTLKWQGDLPGLLDTIGSRLGLSWRVNKGNIVFYQLDTRMFQLVILNTKISSSASVTSGSSSSIGSSGGTNSGVSGESSSAQKTSVDLNSDLYGDIKKTIENMLTPSKGRFWLSSASGTLTVTDTPETLERIGRYIDYQNELLNRQVQLNVQVLSVTQSRKEQFGLDWKLVYQSLNNIGASVTGNLINAADNAFSGGLSILDTATGPAAKFSGSELLIKALSQQGNVSLVTELNRATINLTPVPFQISDQTGYIQSSSTTATANAGTTSSMQTGIITTGLFMSMLPYIQENGDVQLQFAFTLSDKPTIQPFFSRDGNTRTDTPAFKLRSLTQTVNMRAGQTLVLTGADQLDSVANKQGAFTPGNFLFGGGHVGSDTRTTLVILITPVLLR | failed |
| MHSAALLQKVDELPRLPKAIAELLDVVNNEDSTVKAVSEKLSHDPVLSARVLRLANSARFGCSREVGTIDDAVVRLGMQTLRTLVIASAVVGAVPKVEGFDLADFWGNTFEVAIICQELAKRLGTLPEEAFTCGILHSIGELLIVNGDPAVAATISAAVADGADRNLMEKELLGYDNAEIGALLAQSWKFTPHLVKGIQFQNHPKSAEPYSKLAGMLAMAKQIAADWDKIPDDERTSWLAQINILAGIKVDLGGLAEKLAKMHGQGMEMGKQLA | not failed |
| MHSPHDPYVRVRDAREHNLKGVDVDVPRDVLAVFTGVSGSGKSSLAFGTVYAEAQRRYFESVAPYARRLIHQIGAPKVGGITGLPPAVSLQQRRATPTSRSSVGTVTNLSNSLRMLFSRAGTYPPGAERLDSDAFSPNTAAGACPECHGLGRVHRTTEELLVPDPSLSIRDGAIAAWPGAWQGKNLRDVLDALGYDVDRPWRELPAEAREWILFTDEQPVVTVHPVREAGRIQRPYQGTYMSARRYVLKTFADSKSATLRAKAERFLNSAPCPVCGGGRLRAEALAVTVGGRTVAELAALPLAELPRLLPTEGEAAKVLAEDLISRIAPVVELGLGYLSLDRPTPTLSAGELQRLRLATQLRSGLFGVVYVLDEPSAGLHPADTEALLTVLERLKAAGNSVFVVEHHLGVMRGADWIVDVGPLAGEHGGRVLYSGPVDGLARVAESATARHLFDRSPAPVREVRTPRGAVTIGPVTRHNLRGVTVRVPLGVLTAVTGVSGSGKSTLVGEITEDLPGVDRLVSVDQRPIGRTPRSNLATYTGLFDVVRKVFAATDRARERGFGVGRFSFNVPGGRCETCQGEGFVSVELLFLPSTYAPCPDCGGARYNPETLEVAYRGRNIAEVLDLTVEGAAQFFTDTPAVARSLAALLDVGLGYLRLGQPATELSGGEAQRIKLASELQRGRRGHTLYLLDEPTTGLHPADVEVLMRQLHGLVDAGHTVVVVEHDMSVVAGADHVIDLGPGGGDAGGRIVAEGTPARVAGAAGSATAPYLARALDGGERR | failed |
| MHSTLLRTALLTAALGSFSHTATAEGVMVHLFQWKFNDIANECETVLGPKGFGGVQITPPAEHKQGSQVWWTVYQPVSFKNFNSFGGSEAELRSMIARCNAAGVKVYADAVFNQLASGSGTATGGGSYNAGQYQYPQFGYNDFHHSGDITNYGDSNNVWNGALYGMPDLNTGSPYVQDQIATYMKTLLGWGVAGFRIDAAKHMAPTDVKAILDKAGSPKAYLEVIGAGGESPDIQPGRYTYIDTVTDFKYGTDLAANFNGQIKNLKTLGESWGLLPSAKAFVFVVNHDRERGHGGGGMLTFMSGARYDLANTFMIAWPYGWKQVMSGYRFENMSTYETDKGAPGSTPCTDSQWNCEQRRPTIMNMALFHNRTEGQPVSNWWDNGNNQIAFGRGDKGFVAINNESGSLVASLQTALPAGEYCNLLGGNDYCSGGYVTVDGSGKASLNVPGMKAAAIIAGCTKASPCGGSALPGTKFSSMNLRGTHNAWGNTPMTVDANRVWSATLTLTGNGDATGAQRFKFDVFGNWAENYGDNEGDGIADKGSSKDILVSGAGSYRITLNESDLRYTVTPLTSNQAPVAALSPKTLSVKAGESVVFDASASHDDGGVVSYSWSSGGTAATETVRFDTPGTYTVTVTVTDAEGLTASASATVTVTDDNGTYTSVLPTLNFRGTPNAWGSLAMTLVADNQWEALVTFNGQANQRFKFDVKGDWSKNYGDTNKDGVAELAGSDILTSVTGQYRVRFNDQTLQYSLTPVSVGYAKNFASLNIRGTTNNWGSTPMSLVGDHLWQASVTFTGSGDGNGGQRFKFDVKGDWTQNYGDTNRDGVAEQAGADITTALVGVYVVRFNDQTLAYSLNAQ | failed |

Source: a protein production outcome set (Wang et al. 2014)
